Results as given in publication PMC4103834, “Structure-Based Rational Design to Enhance the Solubility and Thermostability of a Bacterial Laccase Lac15” (PLoS ONE, 2014).

The substances below were run on COc1cc(C=NN=Cc2cc(OC)c(O)c(OC)c2)cc(OC)c1O (assay: purified protein). Conditions: standard assay: 50 mM Na2HPO4-KH2PO4 pH 7.5, 100 µM CuSO4, 45 °C, conditions of the Km series not given separately.

Row | Substance | Km [µM] | kcat [s⁻¹]
1 | Lac15 (uncultured bacterium) | 3.74 ± 0.37 | 1.39 ± 0.11
2 | Lac15 (uncultured bacterium; DEL323-332) | 6.34 ± 0.19 | 1.69 ± 0.13
3 | Lac15-His6 (uncultured bacterium) | 4.53 ± 0.21 | 1.35 ± 0.09
